Blank lines part the entries; values can stand above or below the molecule they belong to.
Assays:
Mouse CD96 D1 (mouse) = Mouse CD96 D1 (mouse) (UniProt Q3U0X8); assay: SEC-MALS
Human CD96 D1 (human) = Human CD96 D1 (human) (UniProt P40200); assay: SEC-MALS
SEC-MALS = biological target: the molecule itself; assay: SEC-MALS
Mouse CD96 D1 [1] = biological target: T1, Mouse CD96 D1 (mouse, UniProt Q3U0X8); assay: SPR
Mouse CD96 D1 [2] = biological target: T1, Mouse CD96 D1; assay: SEC-MALS

stoichiometry N (Mouse CD96 D1 (mouse)): 1
Molecule: Mouse CD155 (ligand)

stoichiometry N (Human CD96 D1 (human)): 1
Molecule: Human CD155 (from UniProt P15151 21-417) (ligand)

B1: Mouse CD96 D1 (domain or fragment, UniProt Q3U0X8 22-134, looked up)
chain: VWEELFNVGDDVYALPGSDINLTCQTKEKNFLVQMQWSKVTDKNDMIALYHPQYGLYCGQEHACESQVAATETEKGVTNWTLYLRNISSALGGKYECIFTLYPEGIKTTVYNL
stoichiometry N (SEC-MALS): 2

B2: Human CD96 D1 (domain or fragment, UniProt P40200 22-140, looked up)
chain: VWEKTVNTEENVYATLGSDVNLTCQTQTVGFFVQMQWSKVTNKIDLIAVYHPQYGFYCAYGRPCESLVTFTETPENGSKWTLHLRNMSCSVSGRYECMLVLYPEGIQTKIYNLLIQTHV
stoichiometry N (SEC-MALS): 2

B3: Mouse CD96 D1-D3 (domain or fragment, UniProt Q3U0X8 22-536, looked up)
chain: VWEELFNVGDDVYALPGSDINLTCQTKEKNFLVQMQWSKVTDKNDMIALYHPQYGLYCGQEHACESQVAATETEKGVTNWTLYLRNISSALGGKYECIFTLYPEGIKTTVYNLIVEPYTQDEHNYTIEIETNRTLEIPCFQNTSSEIPPRFTFSWLVEKDGVEEVLFTHHHHVNNSTSFKGRIRLGGDYRLHLSPVQIQDDGRTFSCHLTVNPLKAWKMSTTVKVFAKPEILMTVENSTMDVLGERVFTCLLKNVFPKANITWFIDGRFLQGNEEGIYITNEEKNCSSGFWELKSVLTRMHSGPSQSNNMTAWCMALSPGPRNKMWNTSSQPITVSFDSVIAPTKHLPTVTGSTLGTQPFSDAGVSPTGYLATPSVTIVDENGLTPDATPQTSNSSMTTKDGNYLEASSGTDAKNSSRAAASSKSGSWPFPFTSPPEWHSLPGTSTGPQEPDSPVSWIPSEVHTSAPLDASLAPHDTIISTTTEFPNVLTTANGTTKIDHGPITSIIVNQPSDGM
stoichiometry N (SEC-MALS): 2

B4: Human CD96 D1-D3 (domain or fragment, UniProt P40200 22-519, looked up)
chain: VWEKTVNTEENVYATLGSDVNLTCQTQTVGFFVQMQWSKVTNKIDLIAVYHPQYGFYCAYGRPCESLVTFTETPENGSKWTLHLRNMSCSVSGRYECMLVLYPEGIQTKIYNLLIQTHVTADEWNSNHTIEIEINQTLEIPCFQNSSSKISSEFTYAWSVENSSTDSWVLLSKGIKEDNGTQETLISQNHLISNSTLLKDRVKLGTDYRLHLSPVQIFDDGRKFSCHIRVGPNKILRSSTTVKVFAKPEIPVIVENNSTDVLVERRFTCLLKNVFPKANITWFIDGSFLHDEKEGIYITNEERKGKDGFLELKSVLTRVHSNKPAQSDNLTIWCMALSPVPGNKVWNISSEKITFLLGSEISSTDPPLSVTESTLDTQPSPASSVSPARYPATSSVTLVDVSALRPNTTPQPSNSSMTTRGFNYPWTSSGTDTKKSVSRIPSETYSSSPSGAGSTLHDNVFTSTARAFSEVPTTANGSTKTNHVHITGIVVNKPKDGM
stoichiometry N (SEC-MALS): 2

binding result (Mouse CD96 D1 [1]): binds
B5: mCD96-A heavy-chain G56K (Fab, V domains shown)
VH: QVQLKESGPGLVQPSQTLSLTCTVSGLSLTTNSVSWIRQPPGKGLEWMGVIWSNGKTDYNSDIKSRLSISRDTSKSQVFLKMNSLQTEDTAMYFCARNFPYPGINFDWGQGVMVTVSS
VL: QAVVTQESALTTLPGGTVTLTCHSSTGAVTTSNYANWIQEKADHSFTAILGGTSNRAPGTPARFSGSLLEGKAALTITGAQVEDEATYFCSLWYSGHLIFGGGTKLTVK

binding result (Mouse CD96 D1 [1]): binds
B6: mCD96-A light-chain G50H (Fab, V domains shown)
VH: QVQLKESGPGLVQPSQTLSLTCTVSGLSLTTNSVSWIRQPPGKGLEWMGVIWSNGGTDYNSDIKSRLSISRDTSKSQVFLKMNSLQTEDTAMYFCARNFPYPGINFDWGQGVMVTVSS
VL: QAVVTQESALTTLPGGTVTLTCHSSTGAVTTSNYANWIQEKADHSFTAILGHTSNRAPGTPARFSGSLLEGKAALTITGAQVEDEATYFCSLWYSGHLIFGGGTKLTVK

stoichiometry N (Mouse CD96 D1 [2]): 1
B7: mCD96-A-7 Fab (Fab, V domains shown)
VH: QVQLKESGPGLVQPSQTLSLTCTVSGLSLTTNSVSWIRQPPGKGLEWMGVIWSNGKTDYNSDIKSRLSISRDTSKSQVFLKMNSLQTEDTAMYFCARNFPYPGINMDWGQGVMVTVSS
VL: QAVVTQESALTTLPGGTVTLTCHSSTGAVTTSNYANWIQEKADHSFTAILGHTSNRAPGTPARFSGSLLEGKAALTITGAQVEDEATYFCSLWYSGHLIFGGGTKLTVK

binding result (Mouse CD96 D1 [1]): binds
B8: mCD96-A heavy-chain F101M (Fab, V domains shown)
VH: QVQLKESGPGLVQPSQTLSLTCTVSGLSLTTNSVSWIRQPPGKGLEWMGVIWSNGGTDYNSDIKSRLSISRDTSKSQVFLKMNSLQTEDTAMYFCARNFPYPGINMDWGQGVMVTVSS
VL: QAVVTQESALTTLPGGTVTLTCHSSTGAVTTSNYANWIQEKADHSFTAILGGTSNRAPGTPARFSGSLLEGKAALTITGAQVEDEATYFCSLWYSGHLIFGGGTKLTVK

stoichiometry N (Mouse CD96 D1 [2]): 1
B9: mCD96-A Fab (Fab, V domains shown)
VH: QVQLKESGPGLVQPSQTLSLTCTVSGLSLTTNSVSWIRQPPGKGLEWMGVIWSNGGTDYNSDIKSRLSISRDTSKSQVFLKMNSLQTEDTAMYFCARNFPYPGINFDWGQGVMVTVSS
VL: QAVVTQESALTTLPGGTVTLTCHSSTGAVTTSNYANWIQEKADHSFTAILGGTSNRAPGTPARFSGSLLEGKAALTITGAQVEDEATYFCSLWYSGHLIFGGGTKLTVK

From publication PMC8489928 (mAbs, 2021)
